Positions count from the first letter of the chain named.

The target of the experiment is T1, human tumor necrosis factor (TNF) (human, UniProt P01375 77-233).
T1 construct: The assays use 'human TNF'; The target of the phage display selection is printed only as 'TNF'; also called TNF-alpha
As to the kind of experiment: phage display selection and maturation.

T1 sequence (P01375 77-233 limits assumed): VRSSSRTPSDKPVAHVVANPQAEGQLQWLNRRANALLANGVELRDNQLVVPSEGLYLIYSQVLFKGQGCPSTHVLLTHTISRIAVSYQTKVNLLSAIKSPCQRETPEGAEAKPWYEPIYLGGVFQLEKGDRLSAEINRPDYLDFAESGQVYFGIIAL

B1: TN3-2-B1-c22-11 (designed binder)
chain: ALQTVCLKGTKVHMKCFLAFTQTKTFHEASEDCISRGGTLSTPQTGSENDALYEYLRQSVGNEAEIWLGLNKRWSRYFWVDMTGTRIAYKNWERPEDAQPDPSNWENCAVLSGAANGKWFGKRCRDQLPYICQFGIV
notes: Monomeric tetranectin CTLD clone
For B1, the binding result is given as “binds”.

B2: TN3-2-B1-c22-10 (designed binder)
chain: B1 chain with E93V, P95Q, E96R
notes: as for B1
In the case of B2, the binding result is listed as “binds”.

B3: TN3-2-B1-C31 (designed binder)
chain: B1 chain with R94H, P95S, E96S
notes: as for B1
Take B3: the binding result is recorded as “binds”.

B4: TN3-2-B1-c22-15 (designed binder)
chain: B1 chain with E93Q, R94L, E96Q, D97H, Q99D, D101A
notes: as for B1
B4: the binding result is “binds”.

B5: TN3-2-B1-c22-8 (designed binder)
chain: B1 chain with E93A, P95T, E96Q
notes: as for B1
Consider B5, for which the binding result is recorded as “binds”.

B6: TN3-2-B1-C22 (designed binder)
chain: B1 chain with R94L, E96Q, D97H
notes: Monomeric tetranectin CTLD clone; also called monomeric form of TN2B1C22
B6: the binding result is reported as “binds”.

B7: TN3-2-B1-C1 (designed binder)
chain: B1 chain with R94L, P95L, E96S, S103V
notes: as for B1
Consider B7, for which the binding result is listed as “binds”.

B8: TN3-2-B1-C22-7 (designed binder)
chain: B1 chain with E93G, P95K
notes: Monomeric tetranectin CTLD clone; also called TN3-B1-C22-7; monomeric form of TN2B1C22-7
For B8, the binding result is “binds”.

B9: TN3-2-B1-C19 (designed binder)
chain: B1 chain with R94L, P95I, E96R, S103A
notes: as for B1
As to B9, the binding result is recorded as “binds”.

B10: TN3-2-B1-c22-12 (designed binder)
chain: B1 chain with E93S, P95Q
notes: as for B1
For B10, the binding result is on record as “binds”.

B11: TN3-2-B1-c22-1 (designed binder)
chain: B1 chain with E93K, R94L, E96Q, D97H, Q99N, D101S
notes: as for B1
In the case of B11, the binding result is “binds”.

B12: TN3-2-B1-c22-6 (designed binder)
chain: B1 chain with E93M, R94L, P95E, E96K
notes: as for B1
B12: the binding result is “binds”.

B13: TN3-2-B1-C53 (designed binder)
chain: B1 chain with P95L, E96A, S103F
notes: as for B1
Consider B13, for which the binding result is “binds”.

B14: TN3-2-B1-c22-13 (designed binder)
chain: B1 chain with P95L, E96R, A98S
notes: as for B1
Take B14: the binding result is reported as “binds”.

B15: TN3-2-B1-c22-7 (designed binder)
chain: B1 chain with E93G, P95K
notes: as for B1
With B15, the binding result is reported as “binds”.

B16: TN3-2-B1-c22-16 (designed binder)
chain: B1 chain with E93L, R94L, E96Q, D97H, A98E, D101E
notes: as for B1
As for B16, the binding result is reported as “binds”.

B17: TN3-2-B1-c22-9 (designed binder)
chain: B1 chain with P95N, E96R
notes: as for B1
On to B17, for which the binding result is given as “binds”.

B18: TN3-2-B1-c22-4 (designed binder)
chain: B1 chain with E93A, R94L, E96Q, D97H, Q99S, D101S
notes: as for B1
Regarding B18, the binding result is given as “binds”.

B19: TN3-2-B1-C20 (designed binder)
chain: B1 chain with P95R, E96Q
notes: as for B1
Turning to B19, the binding result is “binds”.

B20: TN3-2-B1-C24 (designed binder)
chain: B1 chain with P95T, E96T
notes: as for B1
Take B20: the binding result was “binds”.

B21: TN3-2-B1-c22-3 (designed binder)
chain: B1 chain with E93K, R94L, E96Q, D97H, Q99H, D101E
notes: as for B1
On to B21, for which the binding result was “binds”.

B22: TN3-2-B1-c7 (designed binder)
chain: B1 chain with R94L, P95A, E96S, S103A
notes: as for B1
For B22, the binding result is “binds”.

B23: TN3-2-B1-C29 (designed binder)
chain: B1 chain with R94G, P95I, D97W, S103T, W105F
notes: as for B1
Regarding B23, the binding result is listed as “binds”.

B24: TN3-2-B1-c22-2 (designed binder)
chain: B1 chain with E93L, R94L, E96Q, D97H, Q99N, D101N
notes: as for B1
For the molecule B24, the binding result was “binds”.

For the origin of these results see patent US20090155843A1 (ANAPHORE, published 2009).
